Source: paper doi:10.1101/2020.03.14.988345 (bioRxiv, 2020)

Molecular target: His-SP (RBD) (SARS-CoV-2, UniProt P0DTC2 319-541)
Assay: SPR

B1: His-CD147 (receptor)
chain: AAGTVFTTVEDLGSKILLTCSLNDSATEVTGHRWLKGGVVLKEDALPGQKTEFKVDSDDQWGEYSCVFLPEPMGTANIQLHGPPRVKAVKSSEHINEGETAMLVCKSESVPPVTDWAWYKITDSEDKALMNGSESRFFVSSSQGRSELHIENLNMEADPGQYRCNGTSSKGSDQAIITLRVRSHLAAL
- Kd: 185 nM
